Measurements: PMC6459815

Target: recombinant CD47 (integrin associated protein), K24-S139, GST-fused (human)
Test: SPR; Biacore X100; recombinant CD47 immobilised on a CM5 chip (amine coupling), analyte at 0.125, 0.25, 0.5, 1 and 2 uM, single-cycle kinetics, 120 s contact, 180 s dissociation (last cycle 580 s); HBS-EP+ (10 mM HEPES pH 7.4, 150 mM NaCl, 3 mM EDTA, 0.05% P20)

recombinant PfMSA180-Tr4 (PfMSA180 truncate 4, residues A805-P1093) (domain or fragment)
Kd: 2.06 nM
stoichiometry N: 1
